# Starred links: 1 amine or outer side, 2 acyl side, 3 side chain; linkers in the order of their positions; H or OH if unused. Positions of bridges follow the written chain, without caps; N, C: chain ends. Non-standard residues stand in square brackets, D forms with d. Primed or numbered codes have the meaning given here. SeN″ = (S)-5-(((allyloxy)carbonyl)(methyl)amino)-2-amino-2-methylpentanoic acid (stapling residue), C=CCOC(=O)N(C)CCC[C@](C)(N[*:1])C(=O)[*:2]; B5(4) = 2,2-bis(4-pentenyl)glycine = 2-amino-2-(pent-4-en-1-yl)hept-6-enoic acid (stitching residue), C=CCCCC(CCCC=C)(N[*:1])C(=O)[*:2]; B5(20) = 2-amino-2-(pent-4-en-1-yl)hept-6-enoic acid = bis(4-pentenyl)glycine, stitching residue, C=CCCCC(CCCC=C)(N[*:1])C(=O)[*:2]; B5(21) = 2-amino-2-(pent-4-en-1-yl)hept-6-enoic acid, bis(4-pentenyl)glycine (stitching residue), C=CCCCC(CCCC=C)(N[*:1])C(=O)[*:2]; SeN = (S)-5-(((allyloxy)carbonyl)(methyl)amino)-2-amino-2-methylpentanoic acid, C=CCOC(=O)N(C)CCC[C@](C)(N[*:1])C(=O)[*:2]; RdN = (R)-4-(((allyloxy)carbonyl)(methyl)amino)-2-amino-2-methylbutanoic acid, C=CCOC(=O)N(C)CC[C@@](C)(N[*:1])C(=O)[*:2]; SdN = (S)-4-(((allyloxy)carbonyl)(methyl)amino)-2-amino-2-methylbutanoic acid, C=CCOC(=O)N(C)CC[C@](C)(N[*:1])C(=O)[*:2]; PyrS = (S)-1-((allyloxy)carbonyl)-3-aminopyrrolidine-3-carboxylic acid, C=CCOC(=O)N1CC[C@@](N[*:1])(C(=O)[*:2])C1; B5 = 2-amino-2-(pent-4-en-1-yl)hept-6-enoic acid, C=CCCCC(CCCC=C)(N[*:1])C(=O)[*:2]; Phe(3-CF3) = N[C@@H](Cc1cccc(C(F)(F)F)c1)C(=O)O; S7 = C[C@@](CCCCCC=[*:3])(N[*:1])C(=O)[*:2]; Phe(3-F) = N[C@@H](Cc1cccc(F)c1)C(=O)O; Phe(4-F) = N[C@@H](Cc1ccc(F)cc1)C(=O)O; αAllylPro = C=CC[C@@]1(C(=O)O)CCCN1; R8 = C=CCCCCCC[C@@](C)(N)C(=O)O; S8 = C=CCCCCCC[C@](C)(N)C(=O)O
# T1: full-length beta-Catenin (Uniprot ID P35222) (Homo sapiens (Human), UniProt P35222 2-781)
# T1 construct: Used full-length in both the FP and the AlphaScreen assay; also called B-Catenin; bCat
# T1 sequence: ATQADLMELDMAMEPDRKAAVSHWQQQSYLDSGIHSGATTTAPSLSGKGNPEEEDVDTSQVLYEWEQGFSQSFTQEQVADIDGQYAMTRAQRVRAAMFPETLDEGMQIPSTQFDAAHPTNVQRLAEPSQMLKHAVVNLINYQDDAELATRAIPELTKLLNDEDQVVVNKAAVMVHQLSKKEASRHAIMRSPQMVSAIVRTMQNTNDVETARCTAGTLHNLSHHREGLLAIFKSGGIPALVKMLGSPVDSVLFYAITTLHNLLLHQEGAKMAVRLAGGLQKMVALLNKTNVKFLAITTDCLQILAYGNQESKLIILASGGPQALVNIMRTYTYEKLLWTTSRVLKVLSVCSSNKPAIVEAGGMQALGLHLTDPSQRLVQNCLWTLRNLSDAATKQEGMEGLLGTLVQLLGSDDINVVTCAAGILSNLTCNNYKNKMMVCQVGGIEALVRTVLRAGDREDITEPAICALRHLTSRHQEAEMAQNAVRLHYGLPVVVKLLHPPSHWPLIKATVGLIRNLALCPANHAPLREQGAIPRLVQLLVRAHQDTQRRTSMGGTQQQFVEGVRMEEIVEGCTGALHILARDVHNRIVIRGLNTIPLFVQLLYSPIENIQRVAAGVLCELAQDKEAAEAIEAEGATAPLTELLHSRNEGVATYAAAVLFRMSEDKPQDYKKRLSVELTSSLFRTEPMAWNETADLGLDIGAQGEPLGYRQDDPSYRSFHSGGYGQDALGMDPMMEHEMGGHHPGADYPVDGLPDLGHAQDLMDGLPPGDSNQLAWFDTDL
# T2: beta-Catenin (full-length, Uniprot ID P35222) (Homo sapiens (Human), UniProt P35222 1-781)
# T2 construct: also called bCat; B-Catenin
# T2 sequence: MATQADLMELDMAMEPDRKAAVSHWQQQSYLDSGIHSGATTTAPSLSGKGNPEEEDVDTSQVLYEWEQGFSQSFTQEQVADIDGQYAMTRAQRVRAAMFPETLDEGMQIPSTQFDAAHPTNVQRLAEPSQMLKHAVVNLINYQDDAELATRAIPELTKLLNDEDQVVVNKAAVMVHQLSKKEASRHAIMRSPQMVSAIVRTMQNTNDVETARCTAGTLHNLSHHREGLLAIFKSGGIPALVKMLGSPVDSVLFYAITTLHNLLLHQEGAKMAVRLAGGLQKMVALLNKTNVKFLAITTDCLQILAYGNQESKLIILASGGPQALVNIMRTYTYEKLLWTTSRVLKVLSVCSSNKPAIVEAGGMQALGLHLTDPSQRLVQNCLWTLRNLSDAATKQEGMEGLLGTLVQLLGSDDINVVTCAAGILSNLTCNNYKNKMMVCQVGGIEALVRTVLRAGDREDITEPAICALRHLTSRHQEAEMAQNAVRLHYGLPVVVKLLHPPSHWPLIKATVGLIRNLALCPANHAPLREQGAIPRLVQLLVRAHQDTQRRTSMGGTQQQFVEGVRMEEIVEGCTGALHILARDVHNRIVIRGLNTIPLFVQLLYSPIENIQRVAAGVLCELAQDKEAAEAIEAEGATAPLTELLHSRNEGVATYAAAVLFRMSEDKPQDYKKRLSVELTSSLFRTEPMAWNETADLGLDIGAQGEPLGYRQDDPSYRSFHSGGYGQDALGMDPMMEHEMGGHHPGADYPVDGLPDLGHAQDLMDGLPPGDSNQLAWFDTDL
# B1: I-78 (peptide)
# peptide: Ac-FDA[R8]DDAA[Phe(4-F)]V[PyrS]FWQ-NH2
# modifications: staple 4-11
# notes: Stapled peptide; also called Ac-Phe-Asp-Ala-R8-Asp-Asp-Ala-Ala-4FF-Val-PyrS-Phe-Trp-Gln-NH2
# B2: I-53 (peptide)
# peptide: Ac-[αAllylPro]DA[B5(21)]DDAAFV[SeN″]FWQ-NH2
# modifications: staple 1-4, 4-11; also: earlier-eluting HPLC isomer, E/Z not given here
# notes: Stapled (stitched) peptide; also called Ac-PL3-Asp-Ala-B5-Asp-Asp-Ala-Ala-Phe-Val-SeN-Phe-Trp-Gln-NH2
# B3: I-54 (peptide)
# peptide: Ac-[αAllylPro]DA[B5(21)]DDAAFV[SeN]FWQ-NH2
# modifications: staple 1-4, 4-11
# notes: as for B2
# B4: I-52 (peptide)
# peptide: Ac-[αAllylPro]DA[B5(20)]DDAAFV[S8]FWQ-NH2
# modifications: staple 1-4, 4-11
# notes: Stapled (stitched) peptide; also called Ac-PL3-Asp-Ala-B5-Asp-Asp-Ala-Ala-Phe-Val-S8-Phe-Trp-Gln-NH2
# B5: I-64 (peptide)
# peptide: Ac-ADI[RdN]DDAAFQ[S7]FWH-NH2
# modifications: staple 4-11; not fully specified
# notes: Stapled peptide; also called Ac-Ala-Asp-Ile-RdN-Asp-Asp-Ala-Ala-Phe-Gln-S7-Phe-Trp-His-NH2
# B6: I-66 (peptide)
# peptide: Ac-ADI[RdN]DEAAFQ[S7]FWH-NH2
# modifications: staple 4-11; not fully specified
# notes: Stapled peptide; also called Ac-Ala-Asp-Ile-RdN-Asp-Glu-Ala-Ala-Phe-Gln-S7-Phe-Trp-His-NH2
# B7: I-67 (peptide)
# peptide: Ac-ADI[RdN]DEAAFQ[S7]FWH-NH2
# modifications: staple 4-11
# notes: as for B6
# B8: I-55 (peptide)
# peptide: Ac-[αAllylPro]DA[B5(4)]DDAAFV[SdN]FWQ-NH2
# modifications: staple 1-4, 4-11
# notes: Stapled (stitched) peptide; also called Ac-PL3-Asp-Ala-B5-Asp-Asp-Ala-Ala-Phe-Val-SdN-Phe-Trp-Gln-NH2
# B9: I-254: Ac-PL3-Asp-Ala-B5-Asp-Asp-Ala-Ala-Phe-Val-S8-4F3MeF-Trp-Gln-NH2 (peptide)
# peptide: XDAXDDAAFVXFWQ
# modifications: not fully specified; N-terminal Ac; PL3 at position 1; B5 at position 4; S8 at position 11; 4F3MeF at position 12; C-terminal NH2; stapled by olefin metathesis (PL3-B5 and B5-S8)
# notes: These are separate isomer compositions
# B10: I-264: Ac-PL3-Asp-Ala-B5-Asp-Asp-Ala-Ala-3FF-Val-S8-Phe-Trp-Gln-NH2 (peptide)
# peptide: Ac-[αAllylPro]DA[B5(4)]DDAA[Phe(3-F)]V[S8]FWQ-NH2
# modifications: staple 1-4, 4-11; not fully specified; printed as Ac-PL3-Asp-Ala-B5-Asp-Asp-Ala-Ala-3FF-Val-S8-Phe-Trp-Gln-NH2
# notes: It is the earlier-eluting isomer composition
# B11: I-263: Ac-PL3-Asp-Ala-B5-Asp-Asp-Ala-Ala-Phe-Val-S8-34FF-Trp-Gln-NH2 (peptide)
# peptide: XDAXDDAAFVXFWQ
# modifications: not fully specified; N-terminal Ac; PL3 at position 1; B5 at position 4; S8 at position 11; 34FF at position 12; C-terminal NH2; stapled by olefin metathesis (PL3-B5 and B5-S8)
# notes: It is the later-eluting isomer composition
# Biological target: T1, full-length beta-Catenin (Uniprot ID …)
# Experiment: fluorescence polarization competition; full-length beta-catenin, 5FAM-TCF4(10-53) probe
# Protocol: (§1) The plate was incubated protected from light for 60 minutes at 20° C. prior to read. Reads were performed on a CLARIOstar plate reader (BMG Labtech) in duplicate, and data were fitted to a 1:1 binding model with hill slope using an in-house script. All provided concentrations are final concentrations.
row,Binder,EC50 [µM]
1,B1,5
2,B2,5
3,B3,3.19
4,B4,3.2
5,B5,4.25
6,B6,1.09
7,B7,1.23
8,B8,5

# Biological target: T2, beta-Catenin (full-length, Uniprot ID …)
# Experiment: fluorescence polarization competition: peptide titrated against 10 nM full-length beta-catenin + 10 nM 5FAM-labeled TCF4 residues 10-53 probe
# Protocol: as §1
row,Binder,IC50 [µM]
1,"Ac-[αAllylPro]DA[B5(4)]DDAAFV[S8][Phe(3-F)]WQ-NH2 (staple 1-4, 4-11, Stapled peptide) [I-260: Ac-PL3-Asp-Ala-B5-Asp-Asp-Ala-Ala-Phe-Val-S8-3FF-Trp-Gln-NH2]",5
2,"Ac-[αAllylPro]DA[B5]DDAAFV[S8][Phe(3-CF3)]WQ-NH2 (staple 1-4, 4-11, These are separate isomer compositions) [I-250: Ac-PL3-Asp-Ala-B5-Asp-Asp-Ala-Ala-Phe-Val-S8-3F3MeF-Trp-Gln-NH2]",5
3,B9,5
4,B10,5
5,B11,5

# Biological target: T1, full-length beta-Catenin (Uniprot ID …)
# Experiment: AlphaScreen competition; full-length beta-catenin, biotin-TCF4(10-53) probe
# Protocol: as §1, with “Equal volume of the titrated peptide was added to the” for “The”, “and” for “was”, “incubated for 15 minutes at 20° C. Then 4 uL of donor and 4 uL acceptor beads at 10 ug/mL were added to the plate, for a 16 uL reaction pool and” for “incubated”
row,Binder,EC50 [µM]
1,B1,7.48
2,B2,1.14
3,B3,0.482
4,B4,0.158
5,B6,0.175
6,B7,0.154
7,B8,2.38

# — patent US20240116985A1 (published 2024)
